Our source for the enrichment values is paper PMC13397619.

Sequences and labels used below:
B1: NLV2 TCR alpha chain (CDR3α only) (parent)
chain: AGPMKTSYDKVI
partner: NLVGMVATV

In the assay the parent is B1. Put plainly: T-Switch: Jurkat TCRβ−/− cells expressing a CDR3 saturation-mutagenesis library, stained with two peptide-HLA-A*02:01 tetramers (original and novel peptide) plus anti-CD3, FACS-sorted into four gates, gDNA sequenced. The following applies: with HLA-A*02:01 with peptide … (NLV 2-2, the original bait), tetramers 1 µg/mL, 30 min on ice, DP and SW gates expanded about 10 days between rounds ('two to three rounds of selection' in the Methods), gate SP: higher = more of the variant in the gate that binds the original peptide and not the novel one = retained original binding. Fold enrichment of the CDR3 variant in one FACS gate of a two-tetra, unresolved parent, parent is a CDR3 fragment, scale: fold enrichment, numbering: sequential-on-construct, sequence ….
Take […] (CDR3 as printed); G2I derived by comparing it with the table's wild-type CDR3 AGPMKTSYDKVI: the enrichment worked out at 0.
The same measure for […] (CDR3 as printed); K10T derived by comparing it with the table's wild-type CDR3 AGPMKTSYDKVI: 0.
The same measure for […] (CDR3 as printed); S7A derived by comparing it with the table's wild-type CDR3 AGPMKTSYDKVI: 3.32.
In the case of […] (CDR3 as printed); I12L derived by comparing it with the table's wild-type CDR3 AGPMKTSYDKVI, the enrichment stood at 0.259.
In the case of […] (CDR3 as printed); D9K derived by comparing it with the table's wild-type CDR3 AGPMKTSYDKVI it was 0.
The same measure for […] (CDR3 as printed); M4Q derived by comparing it with the table's wild-type CDR3 AGPMKTSYDKVI: 5.77.
In the case of […] (CDR3 as printed); M4W derived by comparing it with the table's wild-type CDR3 AGPMKTSYDKVI it was 0; in that of […] (CDR3 as printed); K10G derived by comparing it with the table's wild-type CDR3 AGPMKTSYDKVI, 0; in that of […] (CDR3 as printed); I12F derived by comparing it with the table's wild-type CDR3 AGPMKTSYDKVI, 2.21.
As to […] (CDR3 as printed); I12Q derived by comparing it with the table's wild-type CDR3 AGPMKTSYDKVI, the enrichment was 0.
Consider […] (CDR3 as printed); A1V derived by comparing it with the table's wild-type CDR3 AGPMKTSYDKVI, for which the enrichment was 0.
In the case of […] (CDR3 as printed); K5L derived by comparing it with the table's wild-type CDR3 AGPMKTSYDKVI it was 0; in that of […] (CDR3 as printed); K10S derived by comparing it with the table's wild-type CDR3 AGPMKTSYDKVI, 0.
With […] (CDR3 as printed); M4N derived by comparing it with the table's wild-type CDR3 AGPMKTSYDKVI, the enrichment was 0.
Take […] (CDR3 as printed); K5C derived by comparing it with the table's wild-type CDR3 AGPMKTSYDKVI: the enrichment was determined as 0.
The same measure for […] (CDR3 as printed); D9A derived by comparing it with the table's wild-type CDR3 AGPMKTSYDKVI: 0.
Consider […] (CDR3 as printed); A1R derived by comparing it with the table's wild-type CDR3 AGPMKTSYDKVI, for which the enrichment is 0.
On to […] (CDR3 as printed); G2R derived by comparing it with the table's wild-type CDR3 AGPMKTSYDKVI, for which the enrichment is 0.
As for […] (CDR3 as printed); K5T derived by comparing it with the table's wild-type CDR3 AGPMKTSYDKVI, the enrichment is 4.91.
The same measure for […] (CDR3 as printed); G2Q derived by comparing it with the table's wild-type CDR3 AGPMKTSYDKVI: 0; for […] (CDR3 as printed); S7K derived by comparing it with the table's wild-type CDR3 AGPMKTSYDKVI: 0.
In the case of […] (CDR3 as printed); I12R derived by comparing it with the table's wild-type CDR3 AGPMKTSYDKVI it was 0.
The same measure for […] (CDR3 as printed); D9T derived by comparing it with the table's wild-type CDR3 AGPMKTSYDKVI: 0; for […] (CDR3 as printed); P3W derived by comparing it with the table's wild-type CDR3 AGPMKTSYDKVI: 0.
For […] (CDR3 as printed); T6I derived by comparing it with the table's wild-type CDR3 AGPMKTSYDKVI, the enrichment was determined as 9.21.
In the case of […] (CDR3 as printed); P3T derived by comparing it with the table's wild-type CDR3 AGPMKTSYDKVI it was 0.
The same measure for […] (CDR3 as printed); K10A derived by comparing it with the table's wild-type CDR3 AGPMKTSYDKVI: 0; for […] (CDR3 as printed); M4E derived by comparing it with the table's wild-type CDR3 AGPMKTSYDKVI: 27; for […] (CDR3 as printed); M4H derived by comparing it with the table's wild-type CDR3 AGPMKTSYDKVI: 2.65.
On to […] (CDR3 as printed); D9N derived by comparing it with the table's wild-type CDR3 AGPMKTSYDKVI, for which the enrichment worked out at 0.
The same measure for […] (CDR3 as printed); G2E derived by comparing it with the table's wild-type CDR3 AGPMKTSYDKVI: 0.387; for […] (CDR3 as printed); K10V derived by comparing it with the table's wild-type CDR3 AGPMKTSYDKVI: 0; for […] (CDR3 as printed); K10R derived by comparing it with the table's wild-type CDR3 AGPMKTSYDKVI: 0.
In the case of […] (CDR3 as printed); K10F derived by comparing it with the table's wild-type CDR3 AGPMKTSYDKVI it was 0.
Regarding […] (CDR3 as printed); P3R derived by comparing it with the table's wild-type CDR3 AGPMKTSYDKVI, the enrichment is 0.
Regarding […] (CDR3 as printed); M4D derived by comparing it with the table's wild-type CDR3 AGPMKTSYDKVI, the enrichment came to 0.
In the case of […] (CDR3 as printed); P3C derived by comparing it with the table's wild-type CDR3 AGPMKTSYDKVI it was 0; in that of […] (CDR3 as printed); K5Y derived by comparing it with the table's wild-type CDR3 AGPMKTSYDKVI, 0.
In the case of […] (CDR3 as printed); G2S derived by comparing it with the table's wild-type CDR3 AGPMKTSYDKVI it was 0.
Consider […] (CDR3 as printed); K5V derived by comparing it with the table's wild-type CDR3 AGPMKTSYDKVI, for which the enrichment worked out at 1.08.
Consider […] (CDR3 as printed); M4V derived by comparing it with the table's wild-type CDR3 AGPMKTSYDKVI, for which the enrichment is 18.1.
For the variant […] (CDR3 as printed); D9Y derived by comparing it with the table's wild-type CDR3 AGPMKTSYDKVI, the enrichment stood at 0.
The same measure for […] (CDR3 as printed); K10M derived by comparing it with the table's wild-type CDR3 AGPMKTSYDKVI: 0.
In the case of […] (CDR3 as printed); M4L derived by comparing it with the table's wild-type CDR3 AGPMKTSYDKVI it was 0.
The same measure for […] (CDR3 as printed); K10Y derived by comparing it with the table's wild-type CDR3 AGPMKTSYDKVI: 4.15.
As to […] (CDR3 as printed); S7Y derived by comparing it with the table's wild-type CDR3 AGPMKTSYDKVI, the enrichment was determined as 0.
In the case of […] (CDR3 as printed); D9V derived by comparing it with the table's wild-type CDR3 AGPMKTSYDKVI it was 0; in that of […] (CDR3 as printed); K5G derived by comparing it with the table's wild-type CDR3 AGPMKTSYDKVI, 12.9.
Turning to […] (CDR3 as printed); T6D derived by comparing it with the table's wild-type CDR3 AGPMKTSYDKVI, the enrichment is 0.
Consider […] (CDR3 as printed); M4I derived by comparing it with the table's wild-type CDR3 AGPMKTSYDKVI, for which the enrichment is 18.9.
[…] (CDR3 as printed); K5S derived by comparing it with the table's wild-type CDR3 AGPMKTSYDKVI: the enrichment amounted to 4.22.
The same measure for […] (CDR3 as printed); T6F derived by comparing it with the table's wild-type CDR3 AGPMKTSYDKVI: 0; for […] (CDR3 as printed); K10D derived by comparing it with the table's wild-type CDR3 AGPMKTSYDKVI: 0; for […] (CDR3 as printed); M4R derived by comparing it with the table's wild-type CDR3 AGPMKTSYDKVI: 0.
The same measure for […] (CDR3 as printed); I12A derived by comparing it with the table's wild-type CDR3 AGPMKTSYDKVI: 2.32.
Regarding […] (CDR3 as printed); K10L derived by comparing it with the table's wild-type CDR3 AGPMKTSYDKVI, the enrichment turned out to be 0.
Take […] (CDR3 as printed); G2N derived by comparing it with the table's wild-type CDR3 AGPMKTSYDKVI: the enrichment turned out to be 0.
The same measure for […] (CDR3 as printed); D9G derived by comparing it with the table's wild-type CDR3 AGPMKTSYDKVI: 0; for […] (CDR3 as printed); M4Y derived by comparing it with the table's wild-type CDR3 AGPMKTSYDKVI: 0.292; for […] (CDR3 as printed); D9F derived by comparing it with the table's wild-type CDR3 AGPMKTSYDKVI: 0.
In the case of […] (CDR3 as printed); I12V derived by comparing it with the table's wild-type CDR3 AGPMKTSYDKVI it was 11.6; in that of […] (CDR3 as printed); D9W derived by comparing it with the table's wild-type CDR3 AGPMKTSYDKVI, 0.
Turning to […] (CDR3 as printed); G2F derived by comparing it with the table's wild-type CDR3 AGPMKTSYDKVI, the enrichment worked out at 0.
In the case of […] (CDR3 as printed); K5F derived by comparing it with the table's wild-type CDR3 AGPMKTSYDKVI it was 0; in that of […] (CDR3 as printed); P3G derived by comparing it with the table's wild-type CDR3 AGPMKTSYDKVI, 0.
As to […] (CDR3 as printed); M4K derived by comparing it with the table's wild-type CDR3 AGPMKTSYDKVI, the enrichment turned out to be 0.788.
As to […] (CDR3 as printed); G2W derived by comparing it with the table's wild-type CDR3 AGPMKTSYDKVI, the enrichment came to 0.
The same measure for […] (CDR3 as printed); T6A derived by comparing it with the table's wild-type CDR3 AGPMKTSYDKVI: 0; for […] (CDR3 as printed); I12P derived by comparing it with the table's wild-type CDR3 AGPMKTSYDKVI: 0; for […] (CDR3 as printed); I12M derived by comparing it with the table's wild-type CDR3 AGPMKTSYDKVI: 0.
The same measure for […] (CDR3 as printed); K5M derived by comparing it with the table's wild-type CDR3 AGPMKTSYDKVI: 4.77; for […] (CDR3 as printed); K5Q derived by comparing it with the table's wild-type CDR3 AGPMKTSYDKVI: 7.86; for […] (CDR3 as printed); G2Y derived by comparing it with the table's wild-type CDR3 AGPMKTSYDKVI: 0.
The same measure for […] (CDR3 as printed); P3Y derived by comparing it with the table's wild-type CDR3 AGPMKTSYDKVI: 0; for […] (CDR3 as printed); S7P derived by comparing it with the table's wild-type CDR3 AGPMKTSYDKVI: 0; for […] (CDR3 as printed); K5A derived by comparing it with the table's wild-type CDR3 AGPMKTSYDKVI: 23.5.
Consider […] (CDR3 as printed); P3F derived by comparing it with the table's wild-type CDR3 AGPMKTSYDKVI, for which the enrichment worked out at 0.
In the case of […] (CDR3 as printed); P3Q derived by comparing it with the table's wild-type CDR3 AGPMKTSYDKVI it was 0; in that of […] (CDR3 as printed); D9H derived by comparing it with the table's wild-type CDR3 AGPMKTSYDKVI, 0.283.
With […] (CDR3 as printed); K10W derived by comparing it with the table's wild-type CDR3 AGPMKTSYDKVI, the enrichment was 0.
Regarding […] (CDR3 as printed); T6K derived by comparing it with the table's wild-type CDR3 AGPMKTSYDKVI, the enrichment is 0.
In the case of […] (CDR3 as printed); T6G derived by comparing it with the table's wild-type CDR3 AGPMKTSYDKVI it was 0; in that of […] (CDR3 as printed); P3M derived by comparing it with the table's wild-type CDR3 AGPMKTSYDKVI, 0.
